{"source": "patent US20230407373A1", "about": "(priority 2020, published 2023)", "test_system": "HCoV-OC43 gRNA and sgRNA", "format": "binding", "conditions": "for target (unweighted spectral count): OC43 Probe II, infected cells; for target (unweighted spectral count) / target (unweighted spectral count, OC43 Probe II capture): tested against no-probe control; for target (unweighted spectral count, OC43 Probe II capture): FDR<10%; for target (unweighted spectral count, OC43 Probe II) / background (unweighted spectral count, no-probe control): type n_48_v, 48 hpi; for target (unweighted spectral count, OC43 Probe II): OC43 Probe II capture on infected cells; for background (unweighted spectral count, no-probe control): no-probe control on infected cells", "note": "Where two headings read alike, the source gives them in different places.", "data": [{"molecule": "JUP (protein, UniProt P14923 1-745, looked up) Junction plakoglobin: MEVMNLMEQPIKVTEWQQTYTYDSGIHSGANTCVPSVSSKGIMEEDEACGRQYTLKKTTTYTQGVPPSQGDLEYQMSTTARAKRVREAMCPGVSGEDSSLLLATQVEGQATNLQRLAEPSQLLKSAIVHLINYQDDAELATRALPELTKLLNDEDPVVVTKAAMIVNQLSKKEASRRALMGSPQLVAAVVRTMQNTSDLDTARCTTSILHNLSHHREGLLAIFKSGGIPALVRMLSSPVESVLFYAITTLHNLLLYQEGAKMAVRLADGLQKMVPLLNKNNPKFLAITTDCLQLLAYGNQESKLIILANGGPQALVQIMRNYSYEKLLWTTSRVLKVLSVCPSNKPAIVEAGGMQALGKHLTSNSPRLVQNCLWTLRNLSDVATKQEGLESVLKILVNQLSVDDVNVLTCATGTLSNLTCNNSKNKTLVTQNSGVEALIHAILRAGDKDDITEPAVCALRHLTSRHPEAEMAQNSVRLNYGIPAIVKLLNQPNQWPLVKATIGLIRNLALCPANHAPLQEAAVIPRLVQLLVKAHQDAQRHVAAGTQQPYTDGVRMEEIVEGCTGALHILARDPMNRMEIFRLNTIPLFVQLLYSSVENIQRVAAGVLCELAQDKEAADAIDAEGASAPLMELLHSRNEGTATYAAAVLFRISEDKNPDYRKRVSVELTNSLFKHDPAAWEAAQSMIPINEPYGDDMDATYRPMYSSDVPLDPLEMHMDMDGDYPIDTYSDGLRPPYPTADHMLA", "values": [{"measurement": "target (unweighted spectral count)", "setting": "24 hpi (type n_24_v)", "result": 11}]}, {"molecule": "SLC25A5 (protein, UniProt P05141 1-298, looked up) ADP/ATP translocase 2: MTDAAVSFAKDFLAGGVAAAISKTAVAPIERVKLLLQVQHASKQITADKQYKGIIDCVVRIPKEQGVLSFWRGNLANVIRYFPTQALNFAFKDKYKQIFLGGVDKRTQFWLYFAGNLASGGAAGATSLCFVYPLDFARTRLAADVGKAGAEREFRGLGDCLVKIYKSDGIKGLYQGFNVSVQGIIIYRAAYFGIYDTAKGMLPDPKNTHIVISWMIAQTVTAVAGLTSYPFDTVRRRMMMQSGRKGTDIMYTGTLDCWRKIARDEGGKAFFKGAWSNVLRGMGGAFVLVLYDEIKKYT", "values": [{"measurement": "target (unweighted spectral count)", "setting": "12 hpi (type n_12_v)", "result": 6}]}, {"molecule": "HNRNPF (protein, UniProt P52597 1-415, looked up) Heterogeneous nuclear …: MMLGPEGGEGFVVKLRGLPWSCSVEDVQNFLSDCTIHDGAAGVHFIYTREGRQSGEAFVELGSEDDVKMALKKDRESMGHRYIEVFKSHRTEMDWVLKHSGPNSADSANDGFVRLRGLPFGCTKEEIVQFFSGLEIVPNGITLPVDPEGKITGEAFVQFASQELAEKALGKHKERIGHRYIEVFKSSQEEVRSYSDPPLKFMSVQRPGPYDRPGTARRYIGIVKQAGLERMRPGAYSTGYGGYEEYSGLSDGYGFTTDLFGRDLSYCLSGMYDHRYGDSEFTVQSTTGHCVHMRGLPYKATENDIYNFFSPLNPVRVHIEIGPDGRVTGEADVEFATHEEAVAAMSKDRANMQHRYIELFLNSTTGASNGAYSSQVMQGMGVSAAQATYSGLESQSVSGCYGAGYSGQNSMGGYD", "values": [{"measurement": "target (unweighted spectral count, OC43 Probe II capture)", "setting": "36 hpi, type n_36_v", "result": 34}, {"measurement": "target (unweighted spectral count)", "setting": "12 hpi (type n_12_v)", "result": 13}, {"measurement": "target (unweighted spectral count)", "setting": "24 hpi (type n_24_v)", "result": 27}, {"measurement": "target (unweighted spectral count, OC43 Probe II)", "result": 34}, {"measurement": "background (unweighted spectral count, no-probe control)", "result": 4}]}, {"molecule": "SLC2A1 (protein, UniProt P11166 1-492, looked up) Solute carrier family 2, …: MEPSSKKLTGRLMLAVGGAVLGSLQFGYNTGVINAPQKVIEEFYNQTWVHRYGESILPTTLTTLWSLSVAIFSVGGMIGSFSVGLFVNRFGRRNSMLMMNLLAFVSAVLMGFSKLGKSFEMLILGRFIIGVYCGLTTGFVPMYVGEVSPTALRGALGTLHQLGIVVGILIAQVFGLDSIMGNKDLWPLLLSIIFIPALLQCIVLPFCPESPRFLLINRNEENRAKSVLKKLRGTADVTHDLQEMKEESRQMMREKKVTILELFRSPAYRQPILIAVVLQLSQQLSGINAVFYYSTSIFEKAGVQQPVYATIGSGIVNTAFTVVSLFVVERAGRRTLHLIGLAGMAGCAILMTIALALLEQLPWMSYLSIVAIFGFVAFFEVGPGPIPWFIVAELFSQGPRPAAIAVAGFSNWTSNFIVGMCFQYVEQLCGPYVFIIFTVLLVLFFIFTYFKVPETKGRTFDEIASGFRQGGASQSDKTPEELFHPLGADSQV", "values": [{"measurement": "target (unweighted spectral count)", "setting": "12 hpi (type n_12_v)", "result": 6}]}, {"molecule": "DSG1 (protein, UniProt Q02413 50-1049, looked up) Desmoglein-1: EWIKFAAACREGEDNSKRNPIAKIHSDCAANQQVTYRISGVGIDQPPYGIFVINQKTGEINITSIVDREVTPFFIIYCRALNSMGQDLERPLELRVRVLDINDNPPVFSMATFAGQIEENSNANTLVMILNATDADEPNNLNSKIAFKIIRQEPSDSPMFIINRNTGEIRTMNNFLDREQYGQYALAVRGSDRDGGADGMSAECECNIKILDVNDNIPYMEQSSYTIEIQENTLNSNLLEIRVIDLDEEFSANWMAVIFFISGNEGNWFEIEMNERTNVGILKVVKPLDYEAMQSLQLSIGVRNKAEFHHSIMSQYKLKASAISVTVLNVIEGPVFRPGSKTYVVTGNMGSNDKVGDFVATDLDTGRPSTTVRYVMGNNPADLLAVDSRTGKLTLKNKVTKEQYNMLGGKYQGTILSIDDNLQRTCTGTININIQSFGNDDRTNTEPNTKITTNTGRQESTSSTNYDTSTTSTDSSQVYSSEPGNGAKDLLSDNVHFGPAGIGLLIMGFLVLGLVPFLMICCDCGGAPRSAAGFEPVPECSDGAIHSWAVEGPQPEPRDITTVIPQIPPDNANIIECIDNSGVYTNEYGGREMQDLGGGERMTGFELTEGVKTSGMPEICQEYSGTLRRNSMRECREGGLNMNFMESYFCQKAYAYADEDEGRPSNDCLLIYDIEGVGSPAGSVGCCSFIGEDLDDSFLDTLGPKFKKLADISLGKESYPDLDPSWPPQSTEPVCLPQETEPVVSGHPPISPHFGTTTVISESTYPSGPGVLHPKPILDPLGYGNVTVTESYTTSDTLKPSVHVHDNRPASNVVVTERVVGPISGADLHGMLEMPDLRDGSNVIVTERVIAPSSSLPTSLTIHHPRESSNVVVTERVIQPTSGMIGSLSMHPELANAHNVIVTERVVSGAGVTGISGTTGISGGIGSSGLVGTSMGAGSGALSGAGISGGGIGLSSLGGTASIGHMRSSSDHHFNQTIGSASPSTARSRITKYSTVQYSK", "values": [{"measurement": "target (unweighted spectral count)", "setting": "24 hpi (type n_24_v)", "result": 8}]}, {"molecule": "RBM39 (protein, UniProt Q14498 2-530, looked up) RNA-binding protein 39: ADDIDIEAMLEAPYKKDENKLSSANGHEERSKKRKKSKSRSRSHERKRSKSKERKRSRDRERKKSKSRERKRSRSKERRRSRSRSRDRRFRGRYRSPYSGPKFNSAIRGKIGLPHSIKLSRRRSRSKSPFRKDKSPVREPIDNLTPEERDARTVFCMQLAARIRPRDLEEFFSTVGKVRDVRMISDRNSRRSKGIAYVEFVDVSSVPLAIGLTGQRVLGVPIIVQASQAEKNRAAAMANNLQKGSAGPMRLYVGSLHFNITEDMLRGIFEPFGRIESIQLMMDSETGRSKGYGFITFSDSECAKKALEQLNGFELAGRPMKVGHVTERTDASSASSFLDSDELERTGIDLGTTGRLQLMARLAEGTGLQIPPAAQQALQMSGSLAFGAVAEFSFVIDLQTRLSQQTEASALAAAASVQPLATQCFQLSNMFNPQTEEEVGWDTEIKDDVIEECNKHGGVIHIYVDKNSAQGNVYVKCPSIAAAIAAVNALHGRWFAGKMITAAYVPLPTYHNLFPDSMTATQLLVPSRR", "values": [{"measurement": "target (unweighted spectral count)", "setting": "12 hpi (type n_12_v)", "result": 6}, {"measurement": "target (unweighted spectral count)", "setting": "24 hpi (type n_24_v)", "result": 10}]}, {"molecule": "HNRNPA2B1 (protein, UniProt P22626 1-353, looked up) Heterogeneous nuclear …: MEKTLETVPLERKKREKEQFRKLFIGGLSFETTEESLRNYYEQWGKLTDCVVMRDPASKRSRGFGFVTFSSMAEVDAAMAARPHSIDGRVVEPKRAVAREESGKPGAHVTVKKLFVGGIKEDTEEHHLRDYFEEYGKIDTIEIITDRQSGKKRGFGFVTFDDHDPVDKIVLQKYHTINGHNAEVRKALSRQEMQEVQSSRSGRGGNFGFGDSRGGGGNFGPGPGSNFRGGSDGYGSGRGFGDGYNGYGGGPGGGNFGGSPGYGGGRGGYGGGGPGYGNQGGGYGGGYDNYGGGNYGSGNYNDFGNYNQQPSNYGPMKSGNFGGSRNMGGPYGGGNYGPGGSGGSGGYGGRSRY", "values": [{"measurement": "target (unweighted spectral count)", "setting": "12 hpi (type n_12_v)", "result": 28}, {"measurement": "target (unweighted spectral count, OC43 Probe II)", "result": 86}, {"measurement": "background (unweighted spectral count, no-probe control)", "result": 7}]}, {"molecule": "TRMT10C (protein, UniProt Q7L0Y3 40-403, looked up) tRNA methyltransferase 10 …: MSSKIPAVTYPKNESTPPSEELELDKWKTTMKSSVQEECVSTISSSKDEDPLAATREFIEMWRLLGREVPEHITEEELKTLMECVSNTAKKKYLKYLYTKEKVKKARQIKKEMKAAAREEAKNIKLLETTEEDKQKNFLFLRLWDRNMDIAMGWKGAQAMQFGQPLVFDMAYENYMKRKELQNTVSQLLESEGWNRRNVDPFHIYFCNLKIDGALHRELVKRYQEKWDKLLLTSTEKSHVDLFPKDSIIYLTADSPNVMTTFRHDKVYVIGSFVDKSMQPGTSLAKAKRLNLATECLPLDKYLQWEIGNKNLTLDQMIRILLCLKNNGNWQEALQFVPKRKHTGFLEISQHSQEFINRLKKAKT", "values": [{"measurement": "target (unweighted spectral count)", "setting": "12 hpi (type n_12_v)", "result": 6}]}, {"molecule": "MTPAP (protein, UniProt Q9NVV4 38-582, looked up) Poly(A) RNA polymerase, …: KDLRRDEQPSGSVETGFEDKIPKRRFSEMQNERREQAQRTVLIHCPEKISENKFLKYLSQFGPINNHFFYESFGLYAVVEFCQKESIGSLQNGTHTPSTAMETAIPFRSRFFNLKLKNQTSERSRVRSSNQLPRSNKQLFELLCYAESIDDQLNTLLKEFQLTEENTKLRYLTCSLIEDMAAAYFPDCIVRPFGSSVNTFGKLGCDLDMFLDLDETRNLSAHKISGNFLMEFQVKNVPSERIATQKILSVLGECLDHFGPGCVGVQKILNARCPLVRFSHQASGFQCDLTTNNRIALTSSELLYIYGALDSRVRALVFSVRCWARAHSLTSSIPGAWITNFSLTMMVIFFLQRRSPPILPTLDSLKTLADAEDKCVIEGNNCTFVRDLSRIKPSQNTETLELLLKEFFEYFGNFAFDKNSINIRQGREQNKPDSSPLYIQNPFETSLNISKNVSQSQLQKFVDLARESAWILQQEDTDRPSISSNRPWGLVSLLLPSAPNRKSFTKKKSNKFAIETVKNLLESLKGNRTENFTKTSGKRTISTQT", "values": [{"measurement": "target (unweighted spectral count, OC43 Probe II capture)", "setting": "24 hpi, type n_24_v", "result": 4}, {"measurement": "target (unweighted spectral count)", "setting": "12 hpi (type n_12_v)", "result": 4}]}, {"molecule": "KPRP (protein, UniProt Q5T749 1-579, looked up) Keratinocyte proline-rich …: MCDQQQIQCRLPLQQCCVKGPSFCSSQSPFAQSQVVVQAPCEMQIVDCPASCPVQVCQVSDQAPCQSQTTQVKCQSKTKQVKGQAQCQSKTTQVKGQAASQSQTSSVQSQAPCQSEVSYVQCEASQPVQTCFVECAPVCYTETCYVECPVQNYVPCPAPQPVQMYRGRPAVCQPQGRFSTQCQYQGSYSSCGPQFQSRATCNNYTPQFQLRPSYSSCFPQYRSRTSFSPCVPQCQTQGSYGSFTEQHRSRSTSRCLPPPRRLQLFPRSCSPPRRFEPCSSSYLPLRPSEGFPNYCTPPRRSEPIYNSRCPRRPISSCSQRRGPKCRIEISSPCCPRQVPPQRCPVEIPPIRRRSQSCGPQPSWGASCPELRPHVEPRPLPSFCPPRRLDQCPESPLQRCPPPAPRPRLRPEPCISLEPRPRPLPRQLSEPCLYPEPLPALRPTPRPVPLPRPGQCEIPEPRPCLQPCEHPEPCPRPEPIPLPAPCPSPEPCRETWRSPSPCWGPNPVPYPGDLGCHESSPHRLDTEAPYCGPSSYNQGQESGAGCGPGDVFPERRGQDGHGDQGNAFAGVKGEAKSAYF", "values": [{"measurement": "target (unweighted spectral count)", "setting": "24 hpi (type n_24_v)", "result": 15}]}]}
